Earlier results, collected in article PMC3514653 (Neuromodulation : journal of the International …, 2012).

Conditions: dog, in vivo; cited from earlier work

B1: BDNF: large growth factor (27 KDa); recombinant-methionyl human brain-derived neurotrophic factor (protein, UniProt P23560 19-247, looked up)
Neurotrophic factor BDNF …: APMKEANIRGQGGLAYPGVRTHGTLESVNGPKAGSRGLTSLADTFEHVIEELLDEDQKVRPNEENNKDADLYTSRVMLSSQVPLEPPLLFLLEEYKNYLDAANMSMRVRRHSDPARRGELSVCDSISEWVTAADKKTAVDMSGGTVTVLEKVPVSKGQLKQYFYETKCNPMGYTKEGCRGIDKRHWNSQCRTTQSYVRALTMDSKKRIGWRFIRIDTSCVCTLTIKRGR
modifications: N-terminal methionine
For B1, the “Clearance from the CSF (half-life)” value is listed as 42 min.
